Assay results published in a protein production outcome set (Wang et al. 2014).

Test: label from the status in PepcDB records

| Sequence | protein production |
| --- | --- |
| MPKVLNVVFFFSPLIISAVITYFTWVKIETILIDFGLWLAMVTAFYIFLNFYLLLRRSKRYNIEVADEMTGFKIAAFVTSFNEDPEIVERTLLSVKDAVSNQGDVFLLDDSTDENISRRLREFCTRNDINYVHRKDRRGYKAGAINDALRRIQGYDLVAIFDADQRPVRDFFKQVLPYFKDPKIAFVQVPQNYSETFSGISTGAKYQQEPFLRIIMRGRSGRSAFSLGSGTVFRIQALREVGYLPENSITEDAAVSIKLHSKGYNSVYIDVPLIWYGEPPQDLNAYLIQQSRWALGYFQLTKDIIKADLSFLKYYDYFSGFLYWIKEGPLAIVEFISPIVFLLTEIPILRINPILYLLVYLPYLFISIGIFVAGIREETEYGLKGFFYHQCVEFLEFTAVTASFISWLLGRKRPFRVTPKGGGRLNLRILLPHIVILLLLIVSTVKGILWLISANSNFLLYYAIIVNVFWAIYHIPFFLGGILISARFKTRENLTKVVYY | failed |
| MSGSNVAPEDKRMEDRKFRANIPPQTIVFCTVYQTTIGLTNSQHQKIRLASLRLPLLFFQQRQTSAAPPKEDVMNEETLKKIQSNPKYLELVHKKTSLGWTLAIVMLVIYYGYILVLAFAPSLLGKPLYQGATMTVGIPVGVCIILSAFVLTGIYVRRANQEFDPLTQQIVEEAK | failed |
| MKVLCINPPDDLAALLGDGASFVSTMEPLGLLYVAAACREAGHEVAFIDAYAENLDEETLMRRIRDAAPQVVSFTSFTSNGGFLYTFGRRLRQEMPGVHVLLGNVHATIYARQYLASGCCDVVVRGEGEEVMPALLRVLEEGGDLATVPSIAYVRDGVVAETGGHAFVRDLSTLPLPARDLTRKELYSFARTPNFSLYRTPEGKTEKHLFSSRGCVNRCTFCVAHKNIGIRVRPIDSVIGEVDLLLREYDAGYIFFCDSLFTSRKKRIIELSDALRHHFPGLRWGCEAHVNTIDEDSVRAMAAGGCVDMNFGIESGVDRLLTAVNKRQTTAQIADAIRMVKRVSRINAIGLFILGLPGERPEDSDATIDFACSLPLDMAQFSILTPYPGSPIFEQLRAEGIIDDGVRPGDTLDPEVWRRYSSYASFSDNKPIWVTPEHSVEGLLAAQKRALRRFYLRPRPFLIQLRRLRPADLLDTARTFFKTFF | failed |
| PECDWWALGVFAYEMFYGQTPFYADSTAETYGKIVHYKEHLSLPLVDEGVPEEARDFIQRLLCPPETRLGRGGAGDFRTHPFFFGLDWDGLRDSVPPFTPDFEGATDTCNFDLVEDGLTAMVSGGGETLSDIREGAPLGVHLPFVGYSYSCMALRDSEVPGPTPMEVEAEQLLEPHVQAPSLEPSVSPQDET | failed |
| MSGMAKYMEIYIDIRDKINQNKYEINEKLPDGDSMARTYDCSKLTVKKALDMLVQEGMIIRRRGAGTFVKSHSTNGGEFALGPMSGLVNTFGKDNIKSKVILFSIEKPSKEVAEKLEMQDDYIYRIIRMREVGHKAYSIEHTYMPLAIIPGLEPHHLEDSIYNYIRDDLKLKMQSAHVWVRGDKSNQEDSKLLDLEEPTFMMEIEKLAHLEDGRVFEYSITRHTYESFVFETVFVQN | failed |
| MSLDFHGVFPYLVSPVDAEGRVRADVMGRLCDDLIQAGVHGLTPLGSTGEFAYLGTAQREAVVRATIEAAQRRVPVVAGVASTSVADAVAQAKLYEKLGADGILAILEAYFPLKDAQIESYFRAIADAVEIPVVIYTNPQFQRSDLTLDVIARLAEHPRIRYIKDASTNTGRLLSIINRCGDALQVFSASAHIPAAVMLIGGVGWMAGPACIAPRQSVALYELCKAQRWDEALMLQRKLWRVNEAFAKFNLAACIKAGLALQGYDVGDPIPPQAALTAEERKAVEKVLAEIAEGHHHHHH | not failed |
| MKILKKIFQVIVKIINHCVPVDSRSLYFIPHPNCRTDKYDIINYSSDNVLVLLNYLLKKDSAEYYKIYVEIYDSSRISEYQEYIYGINPNIRCTFLCACVGRFFFNKVSFKDMLYAFFCFCRASKCFTATFYYDFSFKKRSQQIICLGYYTPFKDDYHMGDHSYDKFRNTTCNSFDYSIATSCLSARIISIDCGISYDKFKVLGFPRNDLLISKNNCNVIKREISKFAGYDVTKYIVYTPTFRDYETVTEGNLRSILGYVDCDLLKLSKILLKFNAALILKLHPLQNKTVLKKDLPKGILVFEQTYKYGLYDLLSFSDGMITDYTSTYFDFLLVNKPVIFNFYDIEEYRRVRGFSFEPIEFFCAGDIVYNYNELIDAVMGLLAGKDIHAEHRRHISLLMNQFQDDNSTKRICDIFLNEILEHHHHHH | failed |
| MSIWWLNNTVRVAREKEAVENLATETEWFVLDRWEIHDYKFAAIGSIVAHGATYPIRLVYPDNFPLVPAWVEPQDPEAKWSYHQYGKGGALCLELRPDNWTSRANGADVLRSAYGLLNLENPLGDGEKGKVTSAHNVGEIQKYNWGESPVFIGQECLTRLLSGDIQDVNALRWSASDKVWPIFLSDAVDRQGVQRPPSADLNTWRLHVPVALVSGKVPDGLPSERSTFISTLWESSPVEGEVNFVTVFIEDDGINVFHVLSDNAYHRKVYVLPPETGLRSGRAPSAQAKKVAVVGAGSVGSKVAEMLLRSGIDTLRIFDGDVFLPGNLERHVLDWRDVGYHKVHGLKRRLLHIVPGADIMTIDQNLNWQKSARTNALHFDLITACDIIVDASGDPATSMLLGALAFENKKPFVSVEVFEGGIGALVAPSVPERNAAYTLGREALLNWTDEKGRVVPLSAGDRAYEAISDDGDIIVADDAAISMAASHAARVVLDILDDKLDDFRWLLIGFRKEWAFDMHGHVIALDVGGPSEWNNNTEDADAQKFVIEIAGELLDVLKAFTQ | failed |
| MRQKETTATTRFSLLPGSITRFFLLLIIVLLVTMGVMVQSAVNAWLKDKSYQIVDITHAIQKRVDNWRYVTWQIYDNIAATTSPSSGEGLQETRLKQDVYYLEKPRRKTEALIFGSHDNSTLEMTQRMSTYLDTLWGAENVPWSMYYLNGQDNSLVLISTLPLKDLTSGFKESTVSDIVDSRRAEMLQQANALDERESFSNMRRLAWQNGHYFTLRTTFNQPGHLATVVAFDLPINDLIPPGMPLDSFRLEPDATATGNNDNEKEGTDSVSIHFNSTKIEISSALNSTDMRLVWQVPYGTLLLDTLQNILLPLLLNIGLLALALFGYTTFRHFSSRSTENVPSTAVNNELRILRAINEEIVSLLPLGLLVHDQESNRTVISNKIADHLLPHLNLQNITTMAEQHQGIIQATINNELYEIRMFRSQVAPRTQIFIIRDQDREVLVNKKLKQAQRLYEKNQQGRMIFMKNIGDALKEPAQSLAESAAKLNAPESKQLANQADVLVRLVDEIQLANMLADDSWKSETVLFSVQDLIDEVVPSVLPAIKRKGLQLLINNHLKAHDMRRGDRDALRRILLLLMQYAVTSTQLGKITLEVDQDESSEDRLTFRILDTGEGVSIHEMDNLHFPFINQTQNDRYGKADPLAFWLSDQLARKLGGHLNIKTRDGLGTRYSVHIKMLAADPEVEEEEERLLDDVCVMVDVTSAEIRNIVTRQLENWGATCITPDERLISQDYDIFLTDNPSNLTASGLLLSDDESGVREIGPGQLCVNFNMSNAMQEAVLQLIEVQLAQEEVTESPLGGDENAQLHASGYYALFVDTVPDDVKRLYTEAATSDFAALAQTAHRLKGVFAMLNLVPGKQLCETLEHLIREKDVPGIEKYISDIDSYVKSLL | failed |
| MKVIKGLTAGLIFLFLCACGGQQIKDPLNYEVEPFTFQNQDGKNVSLESLKGEVWLADFIFTNCETICPPMTAHMTDLQKKLKAGNIDVRIISFSVDPENDKPKQLKKFAANYPLSFDNWDFLTGYSQSEIEEFALKSFKAIVKKPEGEDQVIHQSSFYLVGPDGKVLKDYNGVENTPYDDIISDVKSASTLK | not failed |
| MNFIRIVKFDFKNIIRNPMLLFFNTIFPLILIGSIGFVMKNGYGSFNVTSYDYYGVTMMIFTAFIICITASNTFMEKSVKKGNTRIVYAPVSKAEIYLSKIISTYILGSIFYSIIIVLGKYVLNINYGTRSTIYIIILINMLTLFGCCLGVLFCCIFKSEEGANSVLQIVIMLFIFFGGVFFPVYSLGKIVESISNLSPLKWITECIFRIIYDNDFSIYLPTIGVMLVSSIICIVICQIIFKPEEYV | failed |
| MVGINTDTENISELLKTYWSIQRISAGYADQNAASLGLTIQQLAMINVIYSTPGISVADLTKRLIITGSSAAANVDGLISLGLVVKLNKTIPNDSMDLTLKLSKKGEDLSKRSTANAFMYKAMMKVFENLTENEIEELIRLNKKVETLLKKSK | not failed |
| MDDSAGHSGEDNALMEKHFMAAVVVTFQSGSTIDVCLARLRAAKDVAEICVVDNGSHDETLNIVQCHALADPRVRFVANLDNPGFAAACNQGAADVSAPWLVFVNPDLMVEPEILAQLRAYAEVYVPALLGVEQVDEHGYPDPAVRRRDPDFAAMLRNPRRGTQLAIPADPTQSLQLVPALSGALMLMSRLLFERLGGWDVGYRLHAEDLDLCRRARQVGATVAVVNTLQVVHLRGVSSRSRPFFVEWHKHCGLWRYFCKFEAPQRGLPVRLGVWLAIWSHAFFQCLGVWLRRR | failed |
| DWLDLNTTSSVETGQAIVTLDDAQIALNGIYRLASGHSYYGDNYWYYGDCRAADVQARITKGDGKRVSPYYEYNVLASDNLNIVLPWNTVYKVIRQTNNLIQKIESGSIQSSDTKELNRIKSEALVMRGLSLFNLTRLFGMPYTNDKGASLGVPIETSPSDPTHKPSRSTVAQCYEQVVSDMSNALSGLRQETSNGYINYWAAQALLSRVYLNMGEYQKAYDAATDVIKNNGGRYQLYSYEEYPNVWGQDFQSESLFELYITLSEPSGGTGGEGAPMVYANEATVDWNNLILSEDFLNLLNEDPKDVRHCLTKESVIENNTGLPAAAMHEKVYLAKFPGKTGDDPKTNNICIIRLSEVYLNAAEAGLKKGTDIEEAQGYLNDIISRRTTDTSQQVSTETFTLDRILKERRKELVGEGEVFYDYLRNGLAIERKGSWHLETLKASNAQKIEATDLRIALPIPQSEIDANPNIQQNPR | not failed |
| MLRGDILDSKRTSIMTRFSSLLLALSVLLLPLRPAQGQPAERTSSLTVEQIMQAPETWIGDWPTNARWHESGQALYFNWNPGGDFPSDSLYKVSRSGGAPQKVSPAERRSNPPTFDGWHHGEHVYTDDFSRKVYAADGDLYLYNRETDTQTRLTDTPAREGNPRFGLEEDRVLFERDDNLFSVHLSTGQIRQLTNVQSGREPQEGAPSPRERFLEEQQLELFETLRERNEEEEQADEARERDREADDPPPPFYTGDAEVSALRMDPTERFVTIAQQSQPDAADPTQVIDYVTESGQADVRRARPKVGIPPGDFALHVQDLKRDTTIAVNLHQLPGAYDVPAYRQEQGAELDSSEAKRALYSYGPYWSADGDHGVLVVRADNNKDRWIARLDPETGDLTVLDRQHDTAWIGGPGISAYGGPGNVGWMPDGEHFYFQSEATGYSHLYTVDVETGETTQLTSGDFEVLDARLSQDGSTWTLTTNRHSPHQQHVERMPADGGDITRLTQMTGTHDAVLSPDGTRLATLYSTTNQPADLYLKDATADADPVRITESPTDEWAAYDWRMPELTRFEASDGVEVPAHVFRPDNPNGAAVFFVHGAGYLQNVLKDFPPYFREYMFHNMLTDLGYTVVDVDYRGSAGYGRDWRTAVYRHMGGRDLQDYVDAAKWVGDTYGIPAERRFIYGGSYGGFMTLMALFTEPEHFGGGAALRSVTDWAHYNDVYTSNILNTPQTDSLAYARSSPIYHAEGLEDPLLMPHGLVDTNVQPQDIFRLTQRLIELGKENWELAIYPVEGHGFEEPSSWTDEYRRIFELIQESVGPERPQN | failed |
| MTYKELATFLKVLSDSSRLEILDLLSCGELCACDLLAHFQFSQPTLSYHMKALVKTNLVTTRKIGNKHLYQLNHNIFESVINNLSKVHTSNQRCICHNLKTGEC | failed |
| MKMRKLVKDFGDDYTLIQDSQEVKAILEYIGSEEEPHALFVKVGDGDYEEVWGIDSFVPYNFLEAYRLK | not failed |
| MNAAVVRRTQEALGKVIRRPPLTEKLLSKPPFRYLHDIITEVIRMTGFMKGLYTDAEMKSDNVKDKDAKISFLQKAIDVVVMVSGEPLLAKPARIVAGHEPERTNELLQIIGKCCLNKLSSDDAVRRVLAGEK | not failed |
